Measured values published in the supplement of paper PMC7125110.
± gives the standard error. This sample holds only a part of the variants without activity.

B1: glmS ribozyme (parent)
chain: AUAAAAGCGCCAGAACUACAGAAAUGUAGUUGACGAGGAGGAGGUUUAUCGAAUUUUCGGCGGAUGCCUCCAAA

Tests used:
Settings in all cases: with glucosamine-6-phosphate
[1] = variants of: B1; experiment: self-cleavage kobs at 40 uM GlcN6P; higher = faster cleavage; RNA array
Method in brief: (§1)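 Using a hybridised Cy3 probe at 37 °C, barcoded ribozyme variants transcribed in situ by E. coli RNA polymerase on sequenced MiSeq chips were monitored across tiles imaged over ~14 h. The flow contained glucosamine-6-phosphate from 40 μM to 10 mM in HEPES/KCl/Mg(OAc)2 buffer. Signals were normalised to baseline and to non-cleaving reference variants before per-tile medians were fit to one- or two-exponential decays to yield kobs. Weighted Michaelis–Menten fits across concentrations gave kcat and KM.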

[2] = variants of: B1; experiment: self-cleavage kobs at 160 uM GlcN6P; higher = faster cleavage; RNA array
Method in brief: as §1

[3] = variants of: B1; experiment: self-cleavage kobs at 640 uM GlcN6P; higher = faster cleavage; RNA array
Method in brief: as §1

[4] = variants of: B1; experiment: self-cleavage kobs at 2500 uM GlcN6P; higher = faster cleavage; RNA array
Method in brief: as §1

[5] = variants of: B1; experiment: self-cleavage kobs at 10000 uM GlcN6P; higher = faster cleavage; RNA array
Method in brief: as §1

Variant | self-cleavage kobs at 40 uM GlcN6P [1] [s⁻¹] | self-cleavage kobs at 160 uM GlcN6P [2] [s⁻¹] | self-cleavage kobs at 640 uM GlcN6P [3] [s⁻¹] | self-cleavage kobs at 2500 uM GlcN6P [4] [s⁻¹] | self-cleavage kobs at 10000 uM GlcN6P [5] [s⁻¹]
AUAAAAGCGCCAGAACUACAGAAAUGUAGUUGACGAGGAGGAGGUUUAUCGAAUUUUGGCCGGAUGCCUCCAAA | < 1e-05 | < 1e-05 | < 1e-05 | < 1e-05 | < 1e-05
AUAAAAGCGCCACAACUACAGAAAUGUAGUUGACGAGGAGGAGCUUUAUCGAAUUUUCGGCGGAUGCCUCCAAA | < 1e-05 | < 1e-05 | < 1e-05 | < 1e-05 | < 1e-05
AUAAAAGCGCCAGAACUACAGAAAUGUAGUUGACGACGAGGAGGUUUAUCGAAUUGUCGGCGGAUGCCUCCAAA | < 1e-05 | < 1e-05 |  |  | 
AUAAAAGCGCCAGAACUACAGAAAUGUAGUUGACGAGGAGGACGUUUAUCGAAUUAUCGGGGGAUGCCUCCAAA | < 1e-05 |  |  |  | < 1e-05
AUAAAAGCUCCAGAACUACAGAAAUGUAGUUGACAAGGAGGAGGUUUAUCGAAUUUUCGGCGGAUGCCUCCAAA | < 1e-05 | < 1e-05 | < 1e-05 | < 1e-05 | < 1e-05
AUAAAAGCGCCAGAACUACAGAAAUGUAGUUGACGAGGAGGAGGUUUAUCGAAUUUUCGGCGGAUGCCUGCAAA | 0.000246 ± 5.2e-05 | 0.000401 ± 9.4e-05 | 0.0014 ± 0.00021 | 0.000576 ± 4.7e-05 | 0.00395 ± 0.00093
AUAAAAGCGCCAGAACUACAGAAAUGUAGUUGACCAGCAGGAGGUUUAUCGAAUUUUAGGCGGAUGCCUCCAAA | < 1e-05 | < 1e-05 |  | < 1e-05 | 
AUAAAAGCGCCAGAACUACAGAAAUGUAGUUGACGAGGAUGAGGUUUAUCGAAUUUUCGCCGGAUGCCUCCAAA | < 1e-05 | < 1e-05 |  | < 1e-05 | < 1e-05
AUAAAAGCGCCAGAACUACAGAAAUGUAGUUGACGAGGAGGAAGUUUAUGGAAUUUUCGGCGGAUGCCUCCAAA | < 1e-05 | < 1e-05 | < 1e-05 |  | < 1e-05
AUAAAAGCGCCAGAACUACAGAAAUGUAGUUGCCGAGGAGGAGGUUUAUCGAAUUUUCCGCGGAUGCCUCCAAA | < 1e-05 | < 1e-05 | < 1e-05 | < 1e-05 | < 1e-05
AUAAAACCGCCAGAACUACAGAAAUGUAGUUGACGAGGAGGAGGUUUAUCGAAUUUUCGGCGGAUGUCUCCAAA | < 1e-05 | < 1e-05 | < 1e-05 | < 1e-05 | < 1e-05
AUAAAAGCGCCAGAACUACAGAAAUGUAGUUGACGAAGAGGAGGUUUAUCGAAUUUCCCGCGGAUGCCUCCAAA | < 1e-05 |  |  |  | < 1e-05
AUAAAAGCGCCAGAACUACAGAAAUGUAGUUGAGGAGGAGGAGGUUUAUCGAAGUUUCGGCGGAUGCCUCCAAA | < 1e-05 | < 1e-05 | < 1e-05 |  | < 1e-05
AUAAAAGCGCCAGAACUACAGAAAUGUAGUCGACGAGGAUGAGUUGUAUCGAAUUUUCGGCGGAUGCCUCCAAA | < 1e-05 |  |  |  | 
AUAAAAGCGCCAGAACUACAGAAAUGUAGUGGACGAGGAGGAAGUUUAUCGAAUUUUCGGAGGAUGCAUCCAAA | < 1e-05 | < 1e-05 | < 1e-05 | < 1e-05 | 
AUAAAAGCGCCAGAGCUACAGAAAUGUAGUUGACGAGGAGGAGGUUUAUCGAAUUUUCGGCGGAUGCCUCAAAA | 0.000251 ± 5.9e-05 | 0.00102 ± 0.00025 | 0.00108 ± 0.00025 | 0.006 ± 0.0015 | 0.005 ± 0.0016
AUAAAGGGGCCAGAACUACAGAAAUGUAGUUGGCGAGGAGGAGGUUUUUCGAAUUUUUGGCGGUUGCCUACAAA | 3.84e-05 ± 1.7e-05 |  |  |  | 0.000104 ± 3e-05
AUAAAAGCGCCAGAACUACAGAAAUGUAGUUGACAAGGAGGAGGUUUAUCGAAUUAUCGGCGAAUGCCUCCAAA | < 1e-05 |  |  |  | < 1e-05
AUAAAAGCGCCAGAACUACAGAAAUGUAGUUGGCGAGGAGGAGGUUUAUCGAAUUUUCCGCGGAUGCCUCCAAA | < 1e-05 | < 1e-05 | < 1e-05 | < 1e-05 | < 1e-05
AUAAAAGAGCCAGAACUACAGAAAUGUAGUUGACGAGGAUGAGGUUUAUCGAAUUUUCGGCGGAUGCCUCCAAA | < 1e-05 | < 1e-05 | < 1e-05 | < 1e-05 | < 1e-05
AUAAAAGUGCCAGAACUACAGAAAUGUAGUUGACGAGGAGGAGGUUUAUCGAAUUUUCGGCUGAUGCCGCCAAA | 0.00021 ± 7.2e-05 |  |  |  | 0.000358 ± 0.00015
